Results from patent US20240327502A1 (Merck Sharp & Dohme, published 2024).

Experiments:
R198A = target: T1, R198A; experiment: ELISA on supernatant of cells transiently transfected with the MPV-F construct; antibody titrated; OD450
T1 construct: also called MPV-F R198A

R329A = target: T2, R329A; experiment: as above
T2 construct: also called MPV-F R329A

A216Y = target: T3, A216Y; experiment: as above
T3 construct: also called MPV-F A216Y

N202A = target: T4, N202A; experiment: as above
T4 construct: also called MPV-F N202A

L219Y = target: T5, L219Y; experiment: as above
T5 construct: also called MPV-F L219Y

MPV-F (Example 7) = target: T6, MPV-F (Example 7) (human metapneumovirus, UniProt Q6WB98 19-489); experiment: as above
T6 construct: also called hMPV F monomer

A249Y = target: T7, A249Y; experiment: as above
T7 construct: also called MPV-F A249Y

D209Y = target: T8, D209Y; experiment: as above
T8 construct: also called MPV-F D209Y

N210A = target: T9, N210A; experiment: as above
T9 construct: also called MPV-F N210A

R253A = target: T10, R253A; experiment: as above
T10 construct: also called MPV-F R253A

[1] = target: F protein of hMPV A virus (human metapneumovirus subtype A); experiment: cell-based or functional assay
[2] = target: F protein of hMPV B virus (human metapneumovirus subtype B); experiment: cell-based or functional assay
[3] = target: F protein of RSV B/Washington virus (respiratory syncytial virus B, …); experiment: cell-based or functional assay
V231A = target: T11, V231A; experiment: ELISA; Ni-NTA plate coated with Expi293 supernatant containing the His-tagged antigen; antibody titrated; OD450
T11 construct: also called unprocessed hMPV PreF V231A

[4] = target: unprocessed hMPV PreF G264R (human metapneumovirus strain B2); experiment: as above
[5] = target: unprocessed hMPV PreF G264R/Q434H (human metapneumovirus strain B2); experiment: as above
[6] = target: unprocessed hMPV PreF V231A/G264R (human metapneumovirus strain B2); experiment: as above
[7] = target: T12, unprocessed hMPV PreF trimeric antigen (human metapneumovirus strain B2); experiment: as above
T12 construct: also called unprocessed hMPV WT PreF trimer; hMPV WT trimer

Q434H = target: T13, Q434H; experiment: as above
T13 construct: also called unprocessed hMPV PreF Q434H

[8] = target: unprocessed hMPV PreF K138Q (human metapneumovirus strain B2); experiment: as above

B1: M2D2 (antibody, V domains shown)
VH: QVQLVQSGAEVKKPGASVKVSCKASGYNFDNYYMSWVRQAPGQGLEWLGIIDPSGGRISYAPKFQGRVTLTRDTSTSTVYMELRGLRFEDTALYYCARLEATHEGPWGQGTLVTVSS
VL: QSVLTQPPSASGTPGQRVTISCSGSNSNIGSSTVNWYQQLPGTAPKLLIYSDNHRPSGVPDRFSGSRSGTSASLVISGLHSEDEADYYCGTWDDGLNGPYVFGTGTKVTVL
notes: IgG
EC50 (read off the curve) (R198A): ~0.02 µg/mL | EC50 (read off the curve) (R329A): ~0.03 µg/mL | EC50 (read off the curve) (A216Y): ~0.04 µg/mL | EC50 (read off the curve) (N202A): ~0.03 µg/mL | EC50 (read off the curve) (L219Y): ~0.05 µg/mL | EC50 (read off the curve) (MPV-F (Example 7)): ~0.02 µg/mL | EC50 (read off the curve) (A249Y): ~0.05 µg/mL | EC50 (read off the curve) (D209Y): ~0.04 µg/mL | EC50 (read off the curve) (N210A): ~0.02 µg/mL | EC50 (read off the curve) (R253A): ~0.04 µg/mL | PRNT IC50 [1]: 0.0296 µg/mL | PRNT IC50 [2]: 0.0584 µg/mL | PRNT IC50 [3]: 0.0039 µg/mL | EC50 (read off the curve) (V231A): ~0.006 µg/mL | binding result [4]: binds | binding result [5]: binds | binding result [6]: binds | EC50 (read off the curve) [7]: ~0.004 µg/mL | EC50 (read off the curve) (Q434H): ~0.01 µg/mL | EC50 (read off the curve) [8]: ~0.006 µg/mL
